Values quoted from earlier work as cited in paper PMC2517140.

Target: gp41 trimeric inner core (Human immunodeficiency virus 1) (UniProt O70902)

For “gp41 outer-layer peptide (from UniProt O70902)”, the Kd is given as 1 nM.
